Reference: the DeepSol protein solubility set

Assay: soluble on expression in E. coli; label from the status in PepcDB or PDB records

For “SGCIQSITCKARIRRENIVVYDVCATIDQCPTRIEETSPIVLRYKTPYFKASARVVMPPIPRHETWVVGWIQACNQMEFFNTYSDLGMSSWELPDLREGRVKAISDSDGVSYPWYGNTTETVTLVGPTNKISRFSVSMNDNFYPSVTWAVPVSDSNVPLLTRIKRDQSFTTWLVAMNTTTKEKIILQTIKWRMRVDIEVDPLQLLGQRARLVGRTQQEQPRILSRMEPIPPNALVKPNANDAQVLMWRPKRGPPLVVIPPK”, the “soluble on expression in E. coli” value was “soluble”.
In the case of “MGSSHHHHHHSSGLVPRGSHMASMAKMRAVDAAMYVLEKEGITTAFGVPGAAINPFYSAMRKHGGIRHILARHVEGASHMAEGYTRATAGNIGVCLGTSGPAGTDMITALYSASADSIPILCITGQAPRARLHKEDFQAVDIEAIAKPVSKMAVTVREAALVPRVLQQAFHLMRSGRPGPVLVDLPFDVQVAEIEFDPDMYEPLPVYKPAASRMQIEKAVEMLIQAERPVIVAGGGVINADAAALLQQFAELTSVPVIPTLMGWGCIPDDHELMAGMVGLQTAHRYGNATLLASDMVFGIGNRFANRHTGSVEKYTEGRKIVHIDIEPTQIGRVLCPDLGIVSDAKAALTLLVEVAQEMQKAGRLPCRKEWVADCQQRKRTLLRKTHFDNVPVKPQRVYEEMNKAFGRDVCYVTTIGLSQIAAAQMLHVFKDRHWINCGQAGPLGWTIPAALGVCAADPKRNVVAISGDFDFQFLIEELAVGAQFNIPYIHVLVNNAYLGLIRQSQRAFDMDYCVQLAFENINSSEVNGYGVDHVKVAEGLGCKAIRVFKPEDIAPAFEQAKALMAQYRVPVVVEVILERVTNISMGSELDNVMEFEDIADNAADAPTETCFMHYE”, the “soluble on expression in E. coli” value was “soluble”.
With “MGSDKIHHHHHHMSLSRINIGSFRNITSASLQPCDGLNLIYGQNGSGKTSILEAIYFLGMGRSFRSHLSQRVINNDDDKLTLFAHLIDADRDCKIGLRRHRSGEIEVKIDGEKVKRLSTLAETLPIQVITPESFSLLFEGPKARRQFIDWGAFHSDPHFYQAWVNTRKVLKQRNQLLRNQSSYNQIQFWDKELVRYAEQVTDIRNQYVDSLNVLLKGIIGVFLPRIDIKVSFTRGWDSKTDFAQLLENQYSRDLAAGNTGSGPHKADLRLRVGNLPAQDALSRGQLKLLVCALRIAQGKLLKQQLDKNSIYLVDDLPSELDAQHRQLLLQLLTETGAQIFVTAIDPQAIVDSLSSPPNRMFHVEQGLVTVIE” the “soluble on expression in E. coli” value was “not soluble”.
With “MKRIGVFTSGGDAPGMNAAIRAVVRQAHALGVEVIGIRRGYAGMIQGEMVPLGVRDVANIIQRGGTILLTARSQEFLTEEGRAKAYAKLQAAGIEGLVAIGGDGTFRGALCLVEEHGMPVVGVPGTIDNDLYGTDYTIGFDTAVNTALEAIDRIRDTAASHERVFFIEVMGRHAGFIALDVGLAGGAEVIAVPEEPVDPKAVAEVLEASQRRGKKSSIVVVAEGAYPGGAAGLLAAIREHLQVEARVTVLGHIQRGGSPTAKDRILASRLGAAAVEALVGGASGVMVGEVEGEVDLTPLKEAVERRKDINRALLRLSQVLAL” the “soluble on expression in E. coli” value was “soluble”.
For “MGSDKIHHHHHHMERVHVDIRQLQFFAEIVRYGSFTKAAERLHVAQPAVSMAMKKLEEELDLILFNRQERRISLTAEGEIFLRHAEKILDEVKSAETEMEELRGLAKGEVRVGIPPMMSAYFFPEIIRDFSNSYPDLHLTVSGEGASKIQKMIIDGELDMGVVAGASFPETLEVRRFLREEVIVCVPRSHPLASRGSLTLHEFARHPLIFYREGYYLRELILDVLRGAGLSPTIRFETNLYTLVKSLVQKGMGISVFLRMVVAEDDDLTAISLDPPLFLDLLIAWKKHGYLSRANRAFADYLLEKGSSAAL”, the “soluble on expression in E. coli” value was “not soluble”.
For “ALMITDECINCDVCEPECPNGAISQGDETYVIEPSLCTECVGHYETSQCVEVCPVDAIIKDPSHEETEDELRAKYERITGEG”, the “soluble on expression in E. coli” value was “soluble”.
With “MSEQKTIRFIITRQDTADSTPYDEEFEIPYRPNLNVISALMEIRRNPVNVKGEKTTPVTWDMNCLEEVCGACSMVINGKPRQSCTALIDQLEQPIRLKPMKTFPVVRDLQVDRSRMFDSLKKVKAWIPIDGTYDLGPGPRMPEKRRQWAYELSKCMTCGVCLEACPNVNSKSKFMGPAPMSQVRLFNAHPTGAMNKSERLEALMDEGGLADCGNSQNCVQSCPKGIPLTTSIAALNRDTNLQAFRNFFGSDRV” the “soluble on expression in E. coli” value was “not soluble”.
In the case of “VHNAGRMVVMKSRPLGEAEAVLDPSSATVDDFSISRGGDTIAYVKMGPTSPPDIYIYRDDNEYRLTDHNAWFAESRSLAEPVRLQVQSPLGGSIDAWILLPPDAGECSGCLPWILYIHGGPKTSYGYAFIHEFQMLASQGFAVIYSNPRGSDGYSEEFADLRGRYGVDDYSELMKVVDEALSDFPQLDPQRGGVTGGSYGGYMTNVIVTKTRRFKAAVTQRSCSNWISFYGESDIGWYFAPELISAQEPWRDLEKYVDFSPLFSVENIETPLLIIHSTEDFRCPLSGAIQLFTALKLKGVETRLLVFPGENHNLSRSGTPKRRVARLRAIASWFKEHLG”, the “soluble on expression in E. coli” value was “not soluble”.
With “MNILTLMETFSAVVEAGSFTGAAEKLGLSKSFVSKQVSTLEVELGCRLLYRTTRTLSLSDEGSQFYNHCKIIMAEAENARAEVMDRQGAPRGKIRMTIPQSLIISGFGQLLIDFQLQYPEIKLEVIASGRIEDLVKEGIDIALRVGQLEDSSLISRRLMDCTFQVVASSDYIKKWGEPFQPADLMQHNCLIYGDSKINKGWPFRSPSGESITVKAKGNFISNDGGLVVEGMLNGLGIGFGPSFLFNEHVEKGRLKLLLSDYYQPPTAISALYPLNRNLSRRIRLLIDYLSERLSV” the “soluble on expression in E. coli” value was “not soluble”.
For “MSDDGSDTSFEEPHGDFDYTLLFEKFNKEVPKMEEVMKAAKKFGASHRHLINKFILEPSMSAKKMNLMFAKHLTTAIWKRHPDTVMQIQTNREEARQLSKLIVKTMNDDEGKGPKPFRPWRFVISTDEKSPTEFVTMTGCGRNSSVISEASDLTKVERALLLVILEEMISSDGTVQMDWVHSQIRHEPCKMPGPKCDIFMAKMMRQRYFLMTDENEVAEITPRILVELEPWLRAKFTGDLKTCELCRKIISRSVYTAECQKCHALCHFNCFKNATIISHQDNVECQKCNQNLSLNEVLKQIDTKKATGVPRSRDTVARSPSPDSDVPKAPSRTQRAKSKSKTPAPVDSDDDMTITPRPTRGKRNQRVPDSDSE”, the “soluble on expression in E. coli” value was “not soluble”.
In the case of “GSDKIHHHHHHMLTMKDIIRDGHPTLRQKAAELELPLTKEEKETLIAMREFLVNSQDEEIAKRYGLRSGVGLAAPQINISKRMIAVLIPDDGSGKSYDYMLVNPKIVSHSVQEAYLPTGEGCLSVDDNVAGLVHRHNRITIKAKDIEGNDIQLRLKGYPAIVFQHEIDHLNGVMFYDHIDKNHPLQPHTDAVEV”, the “soluble on expression in E. coli” value was “soluble”.
With “MGSDKIHHHHHHMNGNIIVAHGMRHGRQNQALEAFISELVKDDIHHYDIAFLESEHQDLETVMTTLIQSGVDHFKIVPLLIFSAMHYLKDIPNIVHEMKRRYPDIKVEVSEPLGTHPLMRRLIEQRICDALAGDEQQVGVMVVAHGNINGNFTKAHEELQICAQHLQINKPTYARTLYGEISFTHDLESISKRYQKLIVVPLFLYDGRLVNKVKQQMNDMVINTDIHFTPSINFDPILKQIINDRLESLMIPMKI” the “soluble on expression in E. coli” value was “not soluble”.
With “MGSDKIHHHHHHLYVPLLIRQQYIRSGPDYRFSEPVSFLDIKQTFGFSHVRVGRWVTREESRIAANLVFDSLADLAFILKLPPLTLGLRQTLSLAFGHGGQKGVQAHYAPATRELALAKNAGAGALAHEFWHAFDHYIAPKAFNLSEGHFLCASDLWLADSPLIKHPLNLRLSEIFKVTLLSPDGKEPSDYVRRALALDKRYGTRYFSQPTEMMARAFEACIESYRDISNPYLVSGTSFSAMAKEGAYPDELHRQRIFTALLDYFEPLGIALAK” the “soluble on expression in E. coli” value was “not soluble”.
With “MEDRIQKAVELFKSGYNCSQSVVAAFADMYGFTQEQAVRMSASFGGGIGRMRETCGAACGLFLIAGLETGATEATDREGKAANYAVVQELAAEFKKRNGSLICGELLGLKKKEPISTVPEERNTQYYSKRPCAKMVEEAARIWVEYLEKHPK” the “soluble on expression in E. coli” value was “not soluble”.
With “MSLKDFRPLILVAEDDDSNFKLIKAIIGKKCDILWAKNGEEMLNLYREHTQDAHAILMDIKMPIMNGLEATRIIREEGASLPIIMQTAYAFSSDRENAMQAGASEVLVKPITVSALRGCLSSYFPEIKWEGHHHHHH” the “soluble on expression in E. coli” value was “soluble”.
For “MVPLTEENVESVLDEIRPYLMSDGGNVALHEIDGNVVRVKLQGACGSCPSSTMTMKMGIERRLMEKIPEIVAVEALPDEETGLELNEENIEKVLEEIRPYLIGTADGSLDLVEIEDPIVKIRITGPAAGVMTVRVAVTQKLREKIPSIAAVQLI”, the “soluble on expression in E. coli” value was “soluble”.
